Measurements published in patent publication US20080181886A1, “Polypeptides That Bind Baff And/Or April” (Genentech, Inc., priority 2004, published 2008).

Legend:
[1] = target: T1, BAFF (Homo sapiens, UniProt Q9Y275); experiment: NNS phage library of TACI CRD2 (positions 78, 79, 84, 92), BAFF selection; assay type: binding; conditions: amino acid at position F78; after 3 rounds of sorting; large F′ = favorable
T1 construct: made in house
Procedure: (§1) NNS library construction and sorting.
(§2) This new phage library was subjected to sorting against either BAFF, APRIL or the display target antibody. After 3 rounds of sorting, approximately 48 clones were picked from each selection and the DNA sequences of the phage clones were determined. […] The normalized F′ value corrects for display bias and is calculated as the percent occurrence to percent degeneracy ratio for ligand selection divided by the percent occurrence to percent degeneracy ratio for display efficiency. Percent occurrence is calculated by dividing the number of times a particular amino acid appeared at a particular position by the total number of amino acids sequenced at that position followed by multiplying by 100. Percent degeneracy is calculated by dividing the degeneracy in code for a particular amino acid divided by the total degeneracy possible at that position followed by multiplying by 100 (e.g., if only A, G and I were selected, total degeneracy possible would be 5).

[2] = target: T2, APRIL (Mus musculus, UniProt Q9D777); experiment: NNS phage library of TACI CRD2 (positions 78, 79, 84, 92), APRIL selection; assay type: binding, murine; conditions: amino acid at position F78; after 3 rounds of sorting; large F′ = favorable
T2 construct: made in house
T2 sequence (Q9D777 105-241): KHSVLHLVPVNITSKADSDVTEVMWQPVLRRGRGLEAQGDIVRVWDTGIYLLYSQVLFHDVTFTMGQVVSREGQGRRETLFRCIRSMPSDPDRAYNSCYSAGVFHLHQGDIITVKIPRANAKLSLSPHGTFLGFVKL
Procedure: as §1, §2

[3] = target: T2, APRIL; experiment: Competitive surface plasmon resonance, APRIL binding to immobilized BCMA-Fc; set-up: species or system murine; conditions: competition with immobilized BCMA-Fc
Excerpt: Surface plasmon resonance (SPR) measurements on a BIAcore 3000 instrument (Pharmacia Biosensor) were used to measure binding affinities of receptors to immobilized APRIL and BAFF by competition binding. […] In these experiments, receptors in solution competed for binding of ligand in solution at room temperature with immobilized BCMA-Fc. BCMA-Fc was coupled to flow cell 2 of a CM4 sensor chip, using the amine coupling protocol supplied by the manufacturer, at a high density (4500 resonance units) so that the initial rate of binding was linearly dependent on the concentration of free ligand. In all experiments flow cell 1 was ethanolamine-blocked and used as the reference cell. Washing with 10 mM HCl regenerated flow cells between sample injections. In order to determine the ligand concentration necessary to obtain the optimal for competition experiments, a preliminary binding study was performed for each ligand where two-fold dilutions of the ligand ranging from 400 nM to 6.25 nM were injected over the BCMA-Fc surface. […] The IC50 values were calculated using a four-parameter curve fit (y=((m1−m4)/(1+(m0/m3)̂m2))+m4) of the initial binding rates for the receptor/control (Vi/Vo) as a function of receptor concentration.

[4] = target: T1, BAFF; experiment: Competitive surface plasmon resonance, BAFF binding to immobilized BCMA-Fc; conditions: competition with immobilized BCMA-Fc
Excerpt: Surface plasmon resonance (SPR) measurements on a BIAcore 3000 instrument (Pharmacia Biosensor) were used to measure binding affinities of receptors to immobilized APRIL and BAFF by competition binding. […] In these experiments, receptors in solution competed for binding of ligand in solution at room temperature with immobilized BCMA-Fc. BCMA-Fc was coupled to flow cell 2 of a CM4 sensor chip, using the amine coupling protocol supplied by the manufacturer, at a high density (4500 resonance units) so that the initial rate of binding was linearly dependent on the concentration of free ligand. In all experiments flow cell 1 was ethanolamine-blocked and used as the reference cell. Washing with 10 mM HCl regenerated flow cells between sample injections. In order to determine the ligand concentration necessary to obtain the optimal for competition experiments, a preliminary binding study was performed for each ligand where two-fold dilutions of the ligand ranging from 400 nM to 6.25 nM were injected over the BCMA-Fc surface. The concentration of ligand that provided a slope of about 1 for the initial on-rate of the observed sensorgrams was selected as the fixed concentration to be used in the competition experiments. In all experiments where BAFE was the ligand, the buffer used was composed of 10 mM HEPES, pH 7.2, 150 mM NaCl, and 0.005% Tween-20. In all experiments where TRX-APRIL was the ligand selected, the buffer was composed of 20 mM Tris-HCl, pH 8.0, 200 mM NaCl, and 0.005% Tween-20. […] Samples were then passed over the BCMA-Fc-coupled surface. A linear fit of the initial on-rate of the observed sensorgrams was used to calculate the binding rate (V). The IC50 values were calculated using a four-parameter curve fit (y=((m1−m4)/(1+(m0/m3)̂m2))+m4) of the initial binding rates for the receptor/control (Vi/Vo) as a function of receptor concentration.

[5] = target: T2, APRIL; experiment: Competitive ELISA, APRIL; assay type: binding, murine; conditions: data not shown
[6] = target: T1, BAFF; experiment: Competitive ELISA, BAFF; assay type: binding; conditions: data not shown

T1 sequence (Q9Y275 82-285 limits assumed): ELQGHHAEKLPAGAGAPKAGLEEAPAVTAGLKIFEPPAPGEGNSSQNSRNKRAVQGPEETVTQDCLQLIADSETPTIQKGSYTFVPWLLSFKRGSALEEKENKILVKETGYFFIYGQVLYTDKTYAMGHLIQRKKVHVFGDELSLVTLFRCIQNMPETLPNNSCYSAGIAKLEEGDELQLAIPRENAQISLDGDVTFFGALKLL

F78F: phage-displayed TACI CRD2, wild-type F retained at position 78 (NNS library) (SLSCRKEQGKFYDHLLRDCISCASICGQHPKQCAYFCENKLR; CRD2 phage-displayed; UniProt O14836 68-109, looked up, fragment)
F′ BAFF F78 [1]: 3 | F′ APRIL F78 [2]: 2

TACI CRD1 Loop Swap: human TACI CRD1 (R32-R67) with residues NHQSQRT substituted by GQHPKQ of hTACI CRD2 (RSCPEEQYWDPLLGTCMSCKTICGQHPKQCAAFCR)
affinity for APRIL, comparison in words [3]: increased TACI CRD1 affinity | affinity for BAFF, comparison in words [4]: increased TACI CRD1 affinity

TACI_d1: first CRD of TACI (residues 32-67), expressed in E. coli (RSCPEEQYWDPLLGTCMSCKTICNHQSQRTCAAFCR)
IC50 for APRIL, in words [3]: in the micromolar range | IC50 for BAFF, in words [4]: in the micromolar range | affinity for BAFF, comparison in words [4]: an interaction was observed

TACI_d2: second cysteine-rich domain (CRD2, residues 68-109) of TACI, with four additional residues (GSPW) at the N-terminus (GSPWSLSCRKEQGKFYDHLLRDCISCASICGQHPKQCAYFCENKLR)
binding to APRIL, in words [5]: sufficient for high-affinity binding | binding to BAFF, in words [6]: sufficient for high-affinity binding
